Values joined by “and” are separate entries in the source; they are usually repeats but may differ in a detail not shown here. Equal entries are not always repeated.

For assay [1], the target named is PccB D422A (Streptomyces coelicolor). Put plainly: crystal structure.
The target of assay [2] is PccB D422C (Streptomyces coelicolor). Put plainly: crystal structure.
For assay [3] the target is unchanged. Put plainly: SEC. (In general: Size exclusion chromatography separates by hydrodynamic size, large species first.)
Assay [4] has as its target PccB D422E (Streptomyces coelicolor). Nature of the assay: SEC.
Assay [5] deals with PccB D422F (Streptomyces coelicolor). Put plainly: SEC.
In assay [6] the target is PccB D422I (Streptomyces coelicolor). Put plainly: SEC.
Assay [7] concerns the target PccB D422L (Streptomyces coelicolor). Nature of the assay: crystal structure.
The target is the same in assay [8]. Nature of the assay: SEC.
In assay [9] the target is PccB D422N (Streptomyces coelicolor). Put plainly: crystal structure.
The target is the same in assay [10]. Nature of the assay: SEC.
Assay [11] has as its target PccB D422Q (Streptomyces coelicolor). Nature of the assay: SEC.
In assay [12] the target is PccB D422V (Streptomyces coelicolor). Nature of the assay: crystal structure.
The target is the same in assay [13]. Nature of the assay: SEC.
The target in assay [14] is PccB D422Y (Streptomyces coelicolor). Put plainly: SEC.
Assay [15] addresses PccB N80A (Streptomyces coelicolor). Put plainly: SEC.
The target in assay [16] is PccB R456A (Streptomyces coelicolor). Put plainly: SEC.
The target in assay [17] is PccB R456A/R457A (Streptomyces coelicolor). Nature of the assay: SEC.
Assay [18] concerns the target wild type PccB, β subunit of propionyl-CoA carboxylase (PCC) of Streptomyces coelicolor (Streptomyces coelicolor). Nature of the assay: SEC.

As usually defined, the stoichiometry N is a count of units in the complex or per binding partner. Take PccB D422A (enzyme): the stoichiometry N in [1] turned out to be 6.
In the case of PccB D422C (enzyme), the stoichiometry N in assay [2] and in [3] was 6 throughout.
PccB D422E (enzyme) yielded a stoichiometry N in assay [4] of 6.
Regarding PccB D422F (enzyme), in [5], the stoichiometry N was 2 and 3.
On to PccB D422I (enzyme), for which, in assay [6], the stoichiometry N was 6.
On to PccB D422L (enzyme), for which the stoichiometry N in assay [7] and in assay [8] was 6 throughout.
As for PccB D422N (enzyme), the stoichiometry N in assay [9] and in [10] was 6 throughout.
As for PccB D422Q (enzyme), the stoichiometry N in [11] was 2 and 3.
Consider PccB D422V (enzyme), for which the stoichiometry N in [12] and in assay [13] was 6 throughout.
PccB D422Y (enzyme): the stoichiometry N in [14] is 6.
For the substance PccB N80A (enzyme), in [15], the ratio of dimer to hexamer (dimer:hexamer) came to 2; the stoichiometry N was 2 and 6.
With PccB R456A (enzyme), in assay [16], the ratio of dimer to hexamer (dimer:hexamer) amounted to 2.2; the stoichiometry N is 2 and 6.
As to PccB R456A/R457A (enzyme), in assay [17], the ratio of dimer to hexamer (dimer:hexamer) amounted to 2.9; the stoichiometry N is 2 and 6.
In assay [18], “wild type PccB, β subunit of propionyl-CoA carboxylase (PCC) of Streptomyces coelicolor (enzyme)” displayed a stoichiometry N of 6.

These data come from publication PMC2927733.
